Experimental data taken from the DeepSol protein solubility set.

assay: soluble on expression in E. coli; label from the status in PepcDB or PDB records

Row | Sequence | soluble on expression in E. coli
1 | MSLAVVKGARVQVPFGQQIKVGIVVDLPSTTDIPQSKLKPIHAVLDHQAIFDPEIWQLLHWAASYYHAAIGEVLASALPVKLRNGDAAEYVENDYFRVTELGQQRLVSPENKRSKKQYDLLSRLAEIAGFFEKPAGVSPSVWKALLEKGYLAKVVPTCQRKSWQQSLANRPLVNSQSRLVLNQQQTLVVSRLNACQNFETFLLNGITGSGKTEVYLQVIEQILKQDKQVLVLVPEIGLTPQMVNRFKTRFNVEIDVLHSNINETMRLKVWLKAKNGESAIVIGTRSALFTQFQRLGLIIIDEEHDHSFKQQEGWRYHARDVAIFRAKCLNIPIILGSATPSLESVYNVKNGKFTQLLLSTRAGNAEIAQQQLIDLKTQRITAGLSDRLLMLMQTHLQKGNQVMLFLNRRGFAPVLLCHECGWICECDACEKPYTYHQKQRVLRCHHCASQRVIPRQCGYCGSTNLITTGIGTEQLEQLLSEYFPTYQISRIDRDSTGRKGALEHHLNAIQTGKSQILIGTQMLAKGHHFPNVTLVALVNVDSALFSTDFRAEERLAQLYLQVAGRAGRAEKTGEVVLQTHYPDHPLLKCLLKDGYNAFAEEALKMRQVMALPPFTAQVLFRATGKQSDKVEHLLQNLTAYFQHKSVELGIEGIQISPPFSAIVAKKAGYYRWLLLIQHQSRSAIQQLLNVFDQEKSALNLPANIRLSLDVDPYDMSEGHHHHHH | soluble
2 | MSLAVVRTINGDVSPDTLGVVNAHDHLIRVGAGEVYIDPDHLLDDVDKAAQEATYFVEASKSWAAGGTIIDMCPASSGRGVLKTLQVVEKVPGLQVVQATGFHQQKVYLEWRQSWVNQYTVTQIADLLIADIVEGIDRFDYMGPIVERTNVKAGVIKWATAYGKITEWEKKSGQAVAIASKETGCPINTHVTAGTCGPEQARFLVDQGVDPAKIAIGHMQRNWDPWVHEQICKLGCYVELDGTNRIKYVPDNTRVNLVKTLGEKGYGKQILLGTDSGKASYQKVYGSVSGIDYDPAVFCPRLVEDEGVDRDYVNDLLINNAATFFGFEPLAEGHHHHHH | not soluble
3 | MSLDAHNFFKAGPYAPLAARMRPQSLDEVVGQRHLLDSGKPLQRLIAGSGDASVILYGPPGTGKTTIASLISAGTGHEFVGLSALNSGVKEIREVIDQARRNLIHGKRTVLFIDEVHRFSKTQQDALLAAVENRTVLLVAATTENPSFSVVAPLLSRSLILQLKPLTHDDIKTVLLHALQDKRGLDNRITISDEALEQLVLLSGGDARRSLTYLEAASESLADGEELTPEIIRHNVDKAIVRYDRDGDQHYDVVSAFIKSMRGSDVDAALHYLARMIDAGEDPRFIARRLVIHASEDVGMADPQALSVAVAASQAVALIGMPEARINLAQATIHLATAPKSNAVITAIDAALADVKQGKTGPVPAHLRDGHYAGAKQLGNAVGYKYPHDDPRGIVEQQYIPNGLEDVVYYRPSEHGAEQRIESYLGKLRRIVRGQREGHHHHHH | soluble
4 | MSLDIKRVLKAAPTKMRSREPLQQLWTPWGERIEHEWLSARAGNKAFNPAEEGERTLDEGRTPILGEHPRPTMVRDNCTMLNGWWDYAIVSIPEDETAPKWRKTAAMLTRDEAVRAVKETAIPQTFDGKILVPFSPESALSGVHQTIYPDNLLWYRTVVHPVTLGGEETVRQIGDANRLILHFEAVDYVCACYVNGQLAGTHVGGYLPFDVDISAFIDPDDAFEIALCVYDPNDSGTQLRGKQKIEREGIWYTAQSGIWQSVWLEIVPEAYLRTLTLKGASDGKLFVRAEIGGDKPNAKLHIVVTDPADGTVVADETLPAGVRKVRAEIATAAEHLWSPADPYLYDVRAELRYGSAKPAETAGDAAVVQSQPMDVVSSYCAFRSVEIKPDTKGVARFHLNGKPLFVKGVLDQGYWPDGLMTAPDDEALTHDITAMKNAGFNMLRKHIKIESARWYYHCDRLGMLVWQDAVSGGGTDGEYNAWTTNRKPTLIRSTWNKFRDDTAKHFTALGADDPIYRRDWSRTCDAMVHMLGGHPSIVTWTLFNEGWGQFDACDATERIHALDPTRPIDATSGWYDQHCGDYHSVHNYFRPLEIYPDKGPLRGYVAEFEKKHRRRRRAAHYVVLPVARHGVRAFVISEFGGLAQLVPEHAAVSRAYGYGEYDSIDDWRAAVRSVLASAAALESRGLAGYVYTQVSDVEEELNGLLTYDRRVDKFAEEGHHHHHH | soluble
5 | MSLDIQPFSMPLSSPLSTADGTIESRRGFLVRTEIDGVAGVGEAAPLPGWTESYDACQAALCGVEKPKQALEDNVFDDTPAARHAVSLAVADAAARRAGVPLYRRLGAGERVESVPVNATVGDGSPSATAEAVADAAAAGFPAAKVKVGNRSLDADIERIEAVRQRYPDIELRVDANGAWEFETAREAVESMSALGVAVLEQPLPAEALDNHRRLRGHGIDIALDEGLLRHGVDAAIAAEAADCLVCKPMALGGVDIARSAAERARADGWDVIVTTTIDGVVARAAAVHLAASVPDVRPCGLATGGRLASDVGPDAAPVSDGTAAVPQGKGNIPPLEGHHHHHH | soluble
6 | MSLDKLQRISEAIKSKKKLVVMFSGGVDSTLLAKLAREVLGKNAVALTIDSPVIPRKEIEEAKNLANLIGIRHEFIELNELKSRHLIENPPDRCYLCRKLRDNIVKNWARENGFDVIADGLNFSDLQDYRPGVKASTEDGIWHPFIDFEVTKEEIREYSKKLGLPTWDKPAMACLCSRFPYGFGLNEERVRMVEKAENFLRELGFREVRVRFFPYKTAVVEVGRDEMELLMGKRTDIVLALQKIGFSFVTLDLEGFASGKLNRTIEGMSKEGGSHHHHHH | soluble
7 | MSLDKPVIKISTENVDLIYRVGDNGRLYQSYLGKRLNHATDIAHLPQGSEAYLTHGMEDYFEPAIHIVHNDGNPSTLLKYVSHTRNQVSPGVDEVVITMQDDKYPVTVKLHYVAYQKENLIKTFTEISHREKKPVQLHKYASSMLHLNRANYFLTEFSGDWASEAHVKEQPLEFGKKTIDTKLGARANMFCSPFFQLALDGKSEENQGEVLVGTLGWTGNFSFVFEVDNKNELRVISGINPYASEYSLKPNEIFRTPDFYFTYSFKGKGQASRNFHDWARKYQVKDGNQTRMTLLNNWEATYFDFDEAKLVKLMDDAVELGVDMFLLDDGWFANKYPRSGDHQGLGDWDETADKLPHGIGYLTEAAKKKGIKFGIWIEPEMVNPKSELYEKHKDWVIHLPNRDEYYFRNQLVLDLSNPKVQDYVFGVVDNLMTKYPDIAFFKWDCNSPITNIYSVYLKDKQSHLYIDYVRGLYNVLERVKAKYPDLPMMLCSGGGGRSDYEALSYFTEFWPSDNTDPIERLFIQWGFSQVFPAKTMCAHVTTWNKNSSVKFRTDVAMMCKLGFDIKLADMSKDDETYCRTAVQNYNRLKPVVLEGDMYRLVSPYGSNHTSTMYVGKDKDKAVVFAFDIHPRYAEKILPVRLQGLDADKMYRVKEINLMPGANSSLSGNGEVFSGEFLMNVGLNLFTTQQLNSRVIEVVAEGHHHHHH | soluble
8 | MSLDKQNHKIFEILADKVSAKDNVITASGNAILLNYDVYILADKVRYDTKTKEALLEGNIKVYRGEGLLVKTDYVKLSLNEKYEIIFPFYVQDSVSGIWVSADIASGKDQKYKVKNMSTSGCSIDNPIWHVNATSGSFNMQKSHLSMWNPKIYVGDIPVLYLPYIFMSTSNKRTTGFLYPEFGTSNLDGFIYLQPFYLAPKNSWDMTFTPQIRYKRGFGLNFEARYINSKNDRFLFNARYFRNYTQYVKRYDLRNQNIYGFEFLSSSRDTLQKYFHLKSNIDNGHYIDFLYMNDLDYVRFEKVNKRITDATHMSRANYYLQTENNYYGLNIKYFLNLNKINNNRTFQSVPNLQYHKYLNSLYFRNLLYSVDYQFRNTAREIGYGYVQNALNVPVGLQFSLFKKYLSLGLWNDLQLSNVALMQSKNSFVPTIPNESREFGNFVSSNFSMYVNTDLAREYNKLFHTIQLEAIFNIPYYTFKNGLFSQNMYALSAQALNSYTSPLLRDYDYQGRLYDSVWNPSSILPSNASNKTVDLTLTQYLYGLGGQELLYFKISQLINLDDKVSPFRMPLESKIGFSPLTGLNIFGNVFYSFYQNRLEEISVNANYQRKFLSFNLSYFLKNNFSSGINSIVENEGHHHHHH | not soluble
9 | MSLDLHLTNKLALITGSTKGIGKAIAIEMAREGTDVIINGRNEAEVTKVVKEIQTMFPDTHPQAGTADISIESQRATLLEKFPKVDILVNNMGIFEPMEYWDIDDATWEKFFTVNVLSGNALAKAYLPKMLAQDFGRIIFIASEEAVMPSGEMPQYSMTKTMNLSLAKSLSNLTVGTHVTVNTVMPGSTLTEGVEKMLEDMYADSDIPKEDWEKDFMKNHRSRSQIQRLIRPEEIGRFVTFVASPDSSSFSGEALRIDGGLVPTIEGHHHHHH | soluble
10 | MSLDLKLGGQVILVVGGAGTIGSEVVKLLTEEGATAVAASRSTPLSIDASDEASVRAGIDQVIAEHGRLDGLVVSSAPAAQTLSAETADDPDTVLAAIEGKAITFMKAATVALEKMREAGHGRIVALSGMNSYKTLSTTASARNAALNVVVKNLADRHAGTGITVNAISPGFVVAEPDAEVNRANGDTTVEEVAEAIAFLLSPRTASISGEIISVGHKAKGEGHHHHHH | not soluble
11 | MSLDMKTTHTSLPFAGHTLHFVEFDPASFREQDLLWLPHYAQLQHAGRKRKTEHLAGRIAAIYALREYGYKCVPAIGELRQPVWPAGVYGSISHCGTTALAVVSRQPIGIDIEEIFSAQTARELTDNIITPAEHKRLADCGLAFPLALTLAFSAKESAFKASEIQTDADFLDYQIISRNKQQVIIHRENEMFAVHWQIKEKIVITLCQHDEGHHHHHH | soluble
12 | MSLDNPNSSIFADLLAKASELENIIVTLQHKIQGGYYFLNDIEIISEDDARNFDVELVRLKGICNHMQRYNTKAKMRNIDWPIDVVKTAMTETRSKVFETLDLMKELDGFRDLVSYLRIALSNVNDNDLKTEIISSIDGIKEVINKGKQARDAYKLKLEALKDRYATWYMEAYLKAHISEIDHGKKSAVMLSTEKQLCDIIKNASFINPSRYDNWLRKMNLLKVVNSSVNKNAILSVPTSVDGFNPSMQKDELPELEDLKDELKEIYAEYEQGFHDALEDPTILRNKEMLTQEERSTIQQFIDGNITLNPQYARILIDIINKLQRSFTKVEINHNEMLKIFSRPMTKQQALDALAAYIDNHSRGHKPEDIRIIVKEGHHHHHH | soluble
13 | MSLDNQLINSIIEKYQFSKKQIEAVLTLLEEKNTVPFIARYRKEQTGGLDEVQIKQIDDEYQYMVNLQKRKEEVIKNIEQQGLLTEELKKDILKQNKLQRVEDLYRPFKQKKKTRATEAKRKGLEPLAIWMKARKHEVSIEEKAQQFINEEVQSVEDAIKGAQDIIAEQISDNPKYRTKILKDMYHQGVLTTSKKKNAEDEKGIFEMYYAYSEPIKRIANHRVLAVNRGEKEKVLSVKFEFDTTSVEDFIARQEINHNNVNRSYILEAIKDSLKRLIVPSIEREIHADLTEKAENHAIDVFSENLRNLLLQPPMKGKQILGVDPAFRTGCKLAVINPFGTFIAKGVIYPHPPVSKKEAAEKDFVQMVKAYDVQLIAIGNGTASRETEQFVADLIKKHQLPVQFIIVNEAGASVYSASEIARDEFPDFQVEERNAVSIGRHVQDPLSELVKIDPKSIGVGQYQHDFFQEGHHHHHH | soluble
14 | MSLDPIEFIQKSASSIASTMHKLKLKYNPFSEKPIRGNTKFFVGRVSELREIGEILGSALHGSVANAAIVGTKGIGKSSMLNIIYYATKKQGHWVVEMTASQVTPRQFLIQLLYNILTENIITMSGTIKSDYMEHSSRILDMYRKLNNYGDKVPIHYPRERIERDLEYLINEVKSPDKLCIILIDEADQFAKKSCLSLLQFFHSFLYEEGILTFMAGSPTLMDDLTKISPPIKDRIPKIINMPPLSKDESYDLIRRRLEDAHIDGAEEFEPFTEEAIHKIVEECDGIPRKIIMTCSESISIAIRKGLTKIDEKVVKEAMHSLGISVGHQILNHLTPAQSEIVRAMAELGGSATVTQLAEYLKKSPSTIGTHLSDIYEMGYIYKEREGNNVYYKLSKELRDVLIGEDDEGHHHHHH | soluble
